Experimental data published in patent US20220031813A1, “INHIBITOR OF EXTRACELLULAR TRAP FORMATION IN LEUKOCYTES” (priority 2013, published 2022).

How the values were obtained:
human neutrophils [1] = assay: Rate of NETs formation in PMA-stimulated neutrophils after pre-treatment, counted by confocal microscopy; type: cell-based
[2] = tested on: histone-induced thrombus (DIC) model mice; assay: Survival rate/lifetime extension of histone-induced thrombus (DIC) model mice; type: in vivo, mouse; settings: 20 mg/kg i.v. 30 minutes before histone 80 mg/kg, n=8; control: one alive; p=0.0005
Description: 80 mg/kg of histone (sigma, H9250) dissolved in physiological saline and left at 37° C. was intravenously administered to the tails of 11 week old male C57BL/6 mice to create DIC model mice (Tobias A. et al., blood, 29 Sep. 2011, vol. 118, no. 13, pp. 3708-3714). As a pre-treatment, 20 mg/kg of bovine lactoferrin was intravenously administered to the tails of the mice, and 30 minute later, histone was intravenously administered to the tails of the mice (n=8). These mice were labeled as a group of mice provided with therapy with lactoferrin. To the tails of different mice (n=8), 100 μl of physiological saline not containing bovine lactoferrin was intravenously administered, and 30 minutes later, histone was intravenously administered. These mice were labeled as a control group of mice provided with no therapy. The survival rate/lifetime extension after the administration of histone was evaluated by use of the Kaplan-Meier method. The control group of mice provided with no therapy gradually started to die about 20 minutes after the administration of histone. Two days later, two mice were alive, and 4 days later, one mouse was alive. By contrast, the 8 mice in the group provided with therapy with bovine lactoferrin were all alive even 4 days later. […]

[3] = tested on: histone-induced thrombus model mice; assay: Bleeding time duration in histone-induced thrombus model mice; type: in vivo, mouse; settings: 20 mg/kg i.v. 30 minutes before histone 60 mg/kg, n=5, vs no therapy; p<0.0001
Description: As a pre-treatment, 20 mg/kg of bovine lactoferrin was intravenously administered to the tails of 11 week old male C57BL/6 mice, and 30 minute later, 60 mg/kg of histone (sigma, H9250) dissolved in physiological saline and left at 37° C. was intravenously administered to the tails of the mice to check the effect of hemostasis on the DIC model mice (n=5) (Tobias A, et al., Blood, 2011; 118: pp. 3708-3714) (75% of the amount of histone used for improving the survival rate/lifetime extension was adopted). For control group mice without therapy (n=5), 100 μl of physiological saline not containing bovine lactoferrin was intravenously administered to the tails 30 minutes before the administration of histone. For healthy control mice (n=5), physiological saline, instead of the bovine lactoferrin used for the pre-treatment and also instead of histone, was administered. Twenty minutes after the administration of histone, the vein of the tail of each mouse was cut at a position 3 mm from the end, and immersed in a 37° C. physiological saline. At every 30 seconds, the blood was wiped off with a filter paper, and the bleeding time duration was measured (in the case where the bleeding time duration was 15 minutes or longer, the bleeding time duration was recorded as 15 minutes and a hemostasis treatment was performed) (Fuchs T A, et al., Blood, 2011; 118:3708-3714).

[4] = bovine proteins; cited from earlier work
[5] = tested on: histone-induced thrombus model mice; assay: Bleeding in lung tissues of histone-induced thrombus model mice; type: in vivo, mouse; settings: 20 mg/kg i.v. 30 minutes before histone 80 mg/kg, n=4, ten minutes after histone
Description: As a pre-treatment, 20 mg/kg of bovine lactoferrin was intravenously administered to the tails of 11 week old male C57BL/6 mice, and 30 minute later, 80 mg/kg of histone (sigma, H9250) dissolved in physiological saline and left at 37° C. was intravenously administered to tails of the mice to create DIC model mice (n=4) (Tobias A., et al., Blood, 29 Sep. 2011; vol. 118: no. 13, pp. 3708-3714). For control group mice with no therapy (n=4), 100 μl of physiological saline not containing bovine lactoferrin was intravenously administered to the tails 30 minutes before histone was intravenously administered. For healthy control group mice (n=4), physiological saline, instead of the bovine lactoferrin used for the pre-treatment and also instead of histone, was administered. Ten minutes after the administration of histone (second administration of physiological saline), the mice were put to euthanasia. Lung tissues were extracted and immobilized by use of 4% paraformaldehyde.

human neutrophils [6] = assay: Specificity experiment: inhibition of NETs formation by DNA concentration in the culture supernatant; type: cell-based; settings: n=3, p<0.01, FIG. 10
Description: About 1 hour after the isolation of the neutrophils described in “1. Method of isolating human neutrophils” in Example 2, the neutrophils were pre-treated. On an 8-well microslide (Cat. No. ib 80826 Ibidi (registered trademark)), the neutrophils were seeded in 400 μl of culture DMEM+2% human serum Alb (serum human albumin; Product No. A9080 Sigma+4 mM L-glutamine) at a rate of about 1.0×10^5 cells/well, and stimulated with PMA (final concentration: 25 nM, stock: 10 mM in DMSO, Sigma Prod No. P8139). At thirty minutes before the stimulation, and at every one hour or every two hours after the stimulation, 200 μg/ml of human lactoferrin (stock: 100 mg/ml, 200 μl; Cat. No. SIGL6793, SIGMA) was added to perform inhibition [FIG. 2].
The culture supernatant was recovered and centrifuged at 200×g for 10 minutes, and the supernatant was transferred to a new microscopic centrifuge tube. The DNA amount was measured by use of Picogreen dsDNA assay reagent (P11496 Invitrogen) in accordance with an accompanying protocol. Treatment with human lactoferrin at one hour and two hours after the stimulation was a similar effect to the prior pre-treatment, the DNA concentration in the culture supernatant decreased, resulting in suppression of the release of the DNAs by the NETs [FIG. 2]. […]

B1: bovine lactoferrin: bovine lactoferrin (Product No. 123-04124 WAKO); in Example 9 eluted from crude bovine milk protein; cow lactoferrin SEQ ID NO 2 (protein, listed as Bos taurus)
chain: MKLFVPALLSLGALGLCLAAPRKNVRWCTISQPEWFKCRRWQWRMKKLGAPSITCVRRAFALECIRAIAEKKADAVTLDGGMVFEAGRDPYKLRPVAAEIYGTKESPQTHYYAVAVVKKGSNFQLDQLQGRKSCHTGLGRSAGWIIPMGILRPYLSWTESLEPLQGAVAKFFSASCVPCIDRQAYPNLCQLCKGEGENQCACSSREPYFGYSGAFKCLQDGAGDVAFVKETTVFENLPEKADRDQYELLCLNNSRAPVDAFKECHLAQVPSHAVVARSVDGKEDLIWKLLSKAQEKFGKNKSRSFQLFGSPPGQRDLLFKDSALGFLRIPSKVDSALYLGSRYLTTLKNLRETAEEVKARYTRVVWCAVGPEEQKKCQQWSQQSGQNVTCATASTTDDCIVLVLKGEADALNLDGGYIYTAGKCGLVPVLAENRKSSKHSSLDCVLRPTEGYLAVAVVKKANEGLTWNSLKDKKSCHTAVDRTAGWNIPMGLIVNQTGSCAFDEFFSQSCAPGADPKSRLCALCAGDDQGLDKCVPNSKEKYYGYTGAFRCLAEDVGDVAFVKNDTVWENTNGESTADWAKNLNREDFRLLCLDGTRKPVTEAQSCHLAVAPNHAVVSRSDRAAHVKQVLLHQQALFGKNGKNCPDKFCLFKSETKNLLFNDNTECLAKLGGRPTYEEYLGTEYVTAIANLKKCSTSPLLEACAFLTR
Human neutrophils [1]; pre-treatment 2 μg/ml for 30 minutes, then PMA 25 nM
  rate of the NETs formed at plateau, compared with stimulation merely with PMA: half
Human neutrophils [1]; pre-treatment 20 μg/ml for 30 minutes, then PMA 25 nM
  rate of the NETs formed at plateau, compared with stimulation merely with PMA: half
Human neutrophils [1]; pre-treatment 200 μg/ml for 30 minutes, then PMA 25 nM
  formation of the NETs at plateau, compared with stimulation merely with PMA: ¼
Human neutrophils [1]; pre-treatment with 2, 20 or 200 μg/ml, FIG. 1-A, 1-B
  inhibitory effect on the formation of the NETs: concentration-dependent manner
[2]
  mice alive 4 days after histone: 8 mice
[3]
  bleeding time duration: significantly shorter
[4]
  Isoelectric point: 8.2-8.9
[5]
  bleeding in lung tissues: not observed to bleed almost at all
Human neutrophils [6]
  inhibition of the formation of the NETs: inhibited
